assay: soluble fraction after stress (log2 fold change); higher = more stays soluble; pooled small domains, quantitative proteomics; details: stress: pH 4
In short: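 Aggregation propensity is estimated from the fold change in each domain's soluble amount after acid stress. Pooled small-domain libraries were stressed at pH 4, and higher log2 values mean more stayed soluble.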

Sequence | soluble fraction (log2)
HMEAKQMDAWIVSEAKRQGGKIEPAAAYELSRHTATDTSIASQEIAKLLMYVDFKRPVTREDVVELVSA | -0.0795
HMIAGHLQEKKGFFYIVLSYPDAAGKRKTKWFPTKLSVKGNKKKAEVMLMDARKTFVPPETPL | 0.207
HMAEPSTSYTQFMDQAKEGKIKRVDVQGRTLTVTPTEGATYKITAPGDLWMVEDLRKAGVQVYGQP | 0.076
HMKASTRELLDFVLSQRGVSTASVAKALGISVQNASTRLKKLSNEGLIIRSEASSLTGGIEFLYS | 0.0289
HMSDESRAEIVSSAKRLFQQYGYKKTTVSDIAKAMGKVKSAIYYYFPDKESLLRAVIDEEVG | 0.132
HMKQMNETQQKAFEIYLDSATFETDYKPISEEQLAAKLDALGLKGSSSSINRWKKDFNWAQALQNKVTLAM | -0.227
HMNNTIKFFVSQDDDSTRLDVFLSKKIENLTRSNIKKFINLNNVKINKATINSPSKKVKLYDEIEIKFSS | -1.19
HMYELREGDVVSVRILSQTGQNSYIASFAGGRFSVTSERAFAPGTVFSASVSLKDGTLVLSPL | 0.0111
HMALPEHIEPFLRGLGQALAEGDSYEDVQERLLRAYPYLDSTEFQTALARVIFISDLWGRLN | -1.02
HMTFSDKIRELRKQKGVSQAVVAEYLGITKQAYSLYETGKREPDFDSLLKLAEYFGTDTDSLLY | -0.379
HMDILPEGNYKVNYDVIDEVGNIVANKNDIVVTEKSIKPLNTILGIDLYEVIHSQTGKYFTINGDNLTN | -0.328
HMADIWDLLRSEYKLTETDVRMLTDMLPDELMNDFRSEVLALRDRMNRYKVNNPKSYVVTSLKNFIIQHTP | -0.787
HMDKPGMRLNQFIAHSGISSRREADNLIKAGLVQVNGKIIVEMGFRVMPTDIVKFNNETIAS | 0.378
HMDWREMTAWMAELLKRRTGDDVETWNARVRESGAHDEASLRAWLTEQGVTGYAQTLLVMERFGYPDFF | -1.67
HMQTEFVISSGEQPKRLDVFLLQREPYLSRAALQRMIAAGWVRVNNHLAKSSQRIKAGDVIVFD | 0.0697
HMEVTLTLKSFGTAKVAVIKAIQSITGLGLMDAKKLVDAAPSVIKEKISPSEAEQYKKTLVDAGAEVEI | 0.0249
HMAILDTALDVLSMNLKDNYTSFQILRQAAIAGKIAFNLTEKNPLGGVIEVELTGDDLETWIEAATW | -0.697
HMFVVVPDLIGKTINQFEEDLSELNLKYVVSDSGNFNPEFKINAVLDQSPKANSKVKDGRKIYLTLNAS | -0.324
HMDIDGVSENGRLILAALDKEALDFDTLAAETGIQESRLRTELTLLEIRKLIMKLPGQRYRLI | 0.28
HMNKLSISALAETVSTKRKEKSMTQQDLSDATGINRALISRLEQKDFIPSIPQLEKLEEILGFELEEVF | -0.998
HMNTSITVPSLKGLSQEAATLKMERLGLHVEVSDTGFVRSLAFGTVLQQSIAPGEKVKPGRLVYITINSD | 0.0638
HMDDVGERIRKIREEKNLSLDEISKMTGFDVEFLAKIENKERQPQLGTVIKLSKALDSAFGRL | -0.0445
HMQIYLTPEQFKIIDFMEQMGKITVKDVMDILNIPKRTAQLHLQKLKTLKMIAQTGKGPSSAYLL | -0.797
HMRQKTTFFATESFELPNGEKVEEGQIFRLNDGAFNIAEQQGITRFLTSEANYGRMIAANAEVEKAKLDA | -1.05
HMDISKTLGKNPLLIIDNIEYRGKTLDEITAMTGVKRFENIDIYGSEEAMKTYGEKAKDGVIIAYTT | -0.62
HMDSRVRHAVLTTLLGKRIVDDLVEKGELPGTPLVLATAPGLDRDLEQLIAQRVVTALLTTV | 0.192
HMTKKFQIQTLDKLNVRKVADWNASAVTTVKKGQILDVVAEVSPKNGSTKMYKLESGLYITASEKYVKKQG | ≥ 0.43
HMSSYTQEDVRSGILYMAQLKPRNIEEFVSTLAFSKDDIMDNLSFLVDEGFLKFDADTDTYFNPVPL | -0.604

Sequence | soluble fraction (log2)
HMSRLLRTDAHLQYAAERGLPVTASAYTPVFAGAKQYTGRIESFDAQTIRFADGPAVERKAVARLEAE | 0.138
HMPEITPAMIKALLSSLSEELAFASVTKVYAVLHNLFKAALLDDTIDRNPMDKVPRPRKSKDAAL | -0.424
HMDQTIFFGQQKAINNLSTDAGLSATELDEYLKKRYKRPLYQLTQAEGAEIIKGFQDGALSRSSILDYTK | 0.22
HMAEGPYSGKKVEKYPGGMEKRETMYSEGKLTRVTEFHQSGQKKMEVKVDANGQWKRLYWDNNGNPT | -0.086
HMVDYIGRRGVMLSTVSEEKMGNAEVVIDGNSYNIYVKSLDGSTIAYHQEILIINKSKDNNYFLVQIY | -0.548
HMRRRKPLVSYEYGTRVYAPSEGEPRYRVVATDADGQRVFAKFSSEEAARHRAREIEGRLATS | 0.0937
HMGPKALLKIPGLQEVDAELLFKEGYKSISAVASADPEMLKAIPGVDEQKVTEWVTGAEQILSQQVNKGA | 0.25
HMQEDSNISFVKIHVDADSGMAHKKLSKLSLPTGFLIVVIIRGEENIIPNGETEVLPGDLLVAAAREFEN | -0.811
HMEAYSAEAVRFRIKAMIESETVDDVMSDDKIVERLLADGVDIARRTVAKYREAMNIPSSVKRRRKLKGM | -0.962
HMHDHKTRLQELAAQRFGSAPSYLLTADGPAHDRRFHASVEVGGRSFGPGTGKSKKRAEQVAAHIAWDALS | 0.415
HMSRGTLFVDVRGAVAKPGVYELPEKSRVFQAVEAAGGLLPEALERLVNQAAELTDGQQVYIPFEGEE | 0.429
HMGPSSIVVYVSGAVKTPGVYTLAPGSRVDDAVRAAGGLSERAESAGTNLAAQLSDGEHVHVAAAGE | -0.159
HMEIGELITLYRKQAGLTIDELSEKANVPKGTLNKIIGGITKAPTLETMRSIAYALGKKLADFDN | 0.107
HMTLRDRDQALEELWGQLADVPMDSETERLLEPFMGWGVGVSRDEIWHWFDRRHSKGIGHLLYS | -1.67
HMKQDYYSILGVMRDASQEEIKRAYLDAAQRLHPDRNTSAGDTEMFLDVQQAYEVLSNPKRRAQYDATLP | 0.169
HMTKQRSIILDLLKANQDRHLTAEEMLELLNQNHTPVSKATLYRYLDMLVSQNAVRKFIIDDQPSAGYQYL | -0.0717
HMFEATGKITGTEVSFRRKPTTDSERILFFDINTEFRVIGINNGWYKGVYQGKTGYVRSDFVEIVGG | -0.448
HMPQQVFKREDLQKWGLTGQADSRKRREKLGQLLGIGYGNGKQLIHRLNMFQVDRATFEQAIKQINQEEDH | 0.00776
HMGENTIFSGVLGEGRLDSALAHALPQFSRARIQGLIAEDAVLIAGKATNDAASKKFAGQSFELSVPAPRP | 0.0263
HMPQVALAIDEMKRELASPDIVKTLLATTFKGLSEVNMRQAMLDGMIQGHTIADFFKKDVYAIPFGSGYSL | -0.0951
HMSLNNAHNTIFPRIIELMEMKQLENVLLIGGGIIPRKDIESLESSGVTKLYGPGTPVKETIEFITNWVK | -0.533
HMKVFREERLQLILEKLIHEKKVVVSDLVKYFNVSPSLIRMDLAELEKRDLILRTHGGAILPD | -0.0668
HMDEVPMPPEYQYLRVGSRVHHATFGWGKVTRLSQPWPQTRAEVFFENIGPKKLVLAHAHLTMD | 0.113
HMGTWKKIGTMTATVNDLYVRETPNGYIMGFINKGTVVEVDGKTTGKWTHAKVEGIGVGWIWTGYLDK | 0.161
HMQNVKIKAEVKGEVISPGVYELDEESRIQDLIDASGGFSDKAYYDNINLSMKLKDEMVLVVYDKDKI | -1.35
HMEKSSALRAKEAFMALYHDGKFKPGTKIPSESNMAELLGVSRETWRKALALLRGDGVLYSKHGSGTYLLE | -0.0262
HMWPDDAIALPTRDGQDVGGAQERTMLAFASGAAGIRTVEEINPDGSITRLRTRYGWPTFETEGARTAAAE | -0.221
